Reference: PMC9408895

T1: senescence-suppressed protein phosphatase SSPP (His-SSPP)
T1 chain: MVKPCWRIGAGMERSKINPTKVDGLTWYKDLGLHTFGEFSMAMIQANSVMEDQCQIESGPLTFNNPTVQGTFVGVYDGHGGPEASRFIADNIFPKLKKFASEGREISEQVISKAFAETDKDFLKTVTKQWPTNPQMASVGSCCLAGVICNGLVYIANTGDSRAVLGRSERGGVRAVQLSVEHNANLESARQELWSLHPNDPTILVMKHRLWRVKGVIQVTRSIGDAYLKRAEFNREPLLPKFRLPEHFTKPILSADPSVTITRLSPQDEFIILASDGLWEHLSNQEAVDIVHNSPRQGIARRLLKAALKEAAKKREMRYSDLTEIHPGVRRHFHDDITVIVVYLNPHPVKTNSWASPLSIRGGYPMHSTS


Biological target: T1, senescence-suppressed protein …
Experiment: in vitro pull-down (His-SSPP-bound Ni-NTA beads, anti-GST blot)
Conditions: chain shown with the change; 20% pull-down, 10% input loaded; parent: 1.00

ratio to parent	Binder
0.23	GST-AtSARK-CD, cytoplasmic domain of Arabidopsis thaliana senescence-associated receptor-like kinase AtSARK, wild type, Q8VYT3 S384A (protein) CWYRKKQRRLLILNLNDKQEEGLQGLGNLRSFTFRELHVYTDGFSSKNILGAGGFGNVYRGKLGDGTMVAVKRLKDINGTSGDSQFRMELEMISLAVHKNLLRLIGYCATSGERLLVYPYMPNGAVASKLKSKPALDWNMRKRIAIGAARGLLYLHEQCDPKIIHRDVKAANILLDECFEAVVGDFGLAKLLNHADSHVTTAVRGTVGHIAPEYLSTGQSSEKTDVFGFGILLLELITGLRALEFGKTVSQKGAMLEWVRKLHEEMKVEELLDRELGTNYDKIEVGEMLQVALLCTQYLPAHRPKMSEVVLMLEGDGLAERWAASHNHSHFYHANISFKTISSLSTTSVSRLDAHCNDPTYQMFGSSAFDDDDDHQPLDSFAMELSGPR
0.95	GST-AtSARK-CD, cytoplasmic domain of Arabidopsis thaliana senescence-associated receptor-like kinase AtSARK, wild type, Q8VYT3 S304D (protein) CWYRKKQRRLLILNLNDKQEEGLQGLGNLRSFTFRELHVYTDGFDSKNILGAGGFGNVYRGKLGDGTMVAVKRLKDINGTSGDSQFRMELEMISLAVHKNLLRLIGYCATSGERLLVYPYMPNGSVASKLKSKPALDWNMRKRIAIGAARGLLYLHEQCDPKIIHRDVKAANILLDECFEAVVGDFGLAKLLNHADSHVTTAVRGTVGHIAPEYLSTGQSSEKTDVFGFGILLLELITGLRALEFGKTVSQKGAMLEWVRKLHEEMKVEELLDRELGTNYDKIEVGEMLQVALLCTQYLPAHRPKMSEVVLMLEGDGLAERWAASHNHSHFYHANISFKTISSLSTTSVSRLDAHCNDPTYQMFGSSAFDDDDDHQPLDSFAMELSGPR
0.9	GST-AtSARK-CD, cytoplasmic domain of Arabidopsis thaliana senescence-associated receptor-like kinase AtSARK, wild type, Q8VYT3 T465A (protein) CWYRKKQRRLLILNLNDKQEEGLQGLGNLRSFTFRELHVYTDGFSSKNILGAGGFGNVYRGKLGDGTMVAVKRLKDINGTSGDSQFRMELEMISLAVHKNLLRLIGYCATSGERLLVYPYMPNGSVASKLKSKPALDWNMRKRIAIGAARGLLYLHEQCDPKIIHRDVKAANILLDECFEAVVGDFGLAKLLNHADSHVTTAVRGAVGHIAPEYLSTGQSSEKTDVFGFGILLLELITGLRALEFGKTVSQKGAMLEWVRKLHEEMKVEELLDRELGTNYDKIEVGEMLQVALLCTQYLPAHRPKMSEVVLMLEGDGLAERWAASHNHSHFYHANISFKTISSLSTTSVSRLDAHCNDPTYQMFGSSAFDDDDDHQPLDSFAMELSGPR
0.98	GST-AtSARK-CD, cytoplasmic domain of Arabidopsis thaliana senescence-associated receptor-like kinase AtSARK, wild type, Q8VYT3 Y473E (protein) CWYRKKQRRLLILNLNDKQEEGLQGLGNLRSFTFRELHVYTDGFSSKNILGAGGFGNVYRGKLGDGTMVAVKRLKDINGTSGDSQFRMELEMISLAVHKNLLRLIGYCATSGERLLVYPYMPNGSVASKLKSKPALDWNMRKRIAIGAARGLLYLHEQCDPKIIHRDVKAANILLDECFEAVVGDFGLAKLLNHADSHVTTAVRGTVGHIAPEELSTGQSSEKTDVFGFGILLLELITGLRALEFGKTVSQKGAMLEWVRKLHEEMKVEELLDRELGTNYDKIEVGEMLQVALLCTQYLPAHRPKMSEVVLMLEGDGLAERWAASHNHSHFYHANISFKTISSLSTTSVSRLDAHCNDPTYQMFGSSAFDDDDDHQPLDSFAMELSGPR

More lines, now with the values behind:

Binder	ratio to parent
GST-AtSARK-CD, cytoplasmic domain of Arabidopsis thaliana senescence-associated receptor-like kinase AtSARK, wild type, Q8VYT3 Y413F (protein) CWYRKKQRRLLILNLNDKQEEGLQGLGNLRSFTFRELHVYTDGFSSKNILGAGGFGNVYRGKLGDGTMVAVKRLKDINGTSGDSQFRMELEMISLAVHKNLLRLIGYCATSGERLLVYPYMPNGSVASKLKSKPALDWNMRKRIAIGAARGLLFLHEQCDPKIIHRDVKAANILLDECFEAVVGDFGLAKLLNHADSHVTTAVRGTVGHIAPEYLSTGQSSEKTDVFGFGILLLELITGLRALEFGKTVSQKGAMLEWVRKLHEEMKVEELLDRELGTNYDKIEVGEMLQVALLCTQYLPAHRPKMSEVVLMLEGDGLAERWAASHNHSHFYHANISFKTISSLSTTSVSRLDAHCNDPTYQMFGSSAFDDDDDHQPLDSFAMELSGPR	1.16
GST-AtSARK-CD, cytoplasmic domain of Arabidopsis thaliana senescence-associated receptor-like kinase AtSARK, wild type, Q8VYT3 T465D (protein) CWYRKKQRRLLILNLNDKQEEGLQGLGNLRSFTFRELHVYTDGFSSKNILGAGGFGNVYRGKLGDGTMVAVKRLKDINGTSGDSQFRMELEMISLAVHKNLLRLIGYCATSGERLLVYPYMPNGSVASKLKSKPALDWNMRKRIAIGAARGLLYLHEQCDPKIIHRDVKAANILLDECFEAVVGDFGLAKLLNHADSHVTTAVRGDVGHIAPEYLSTGQSSEKTDVFGFGILLLELITGLRALEFGKTVSQKGAMLEWVRKLHEEMKVEELLDRELGTNYDKIEVGEMLQVALLCTQYLPAHRPKMSEVVLMLEGDGLAERWAASHNHSHFYHANISFKTISSLSTTSVSRLDAHCNDPTYQMFGSSAFDDDDDHQPLDSFAMELSGPR	0.88
GST-AtSARK-CD, cytoplasmic domain of Arabidopsis thaliana senescence-associated receptor-like kinase AtSARK, wild type, Q8VYT3 T326A (protein) CWYRKKQRRLLILNLNDKQEEGLQGLGNLRSFTFRELHVYTDGFSSKNILGAGGFGNVYRGKLGDGAMVAVKRLKDINGTSGDSQFRMELEMISLAVHKNLLRLIGYCATSGERLLVYPYMPNGSVASKLKSKPALDWNMRKRIAIGAARGLLYLHEQCDPKIIHRDVKAANILLDECFEAVVGDFGLAKLLNHADSHVTTAVRGTVGHIAPEYLSTGQSSEKTDVFGFGILLLELITGLRALEFGKTVSQKGAMLEWVRKLHEEMKVEELLDRELGTNYDKIEVGEMLQVALLCTQYLPAHRPKMSEVVLMLEGDGLAERWAASHNHSHFYHANISFKTISSLSTTSVSRLDAHCNDPTYQMFGSSAFDDDDDHQPLDSFAMELSGPR	0.97
GST-AtSARK-CD, cytoplasmic domain of Arabidopsis thaliana senescence-associated receptor-like kinase AtSARK, wild type, Q8VYT3 Y413E (protein) CWYRKKQRRLLILNLNDKQEEGLQGLGNLRSFTFRELHVYTDGFSSKNILGAGGFGNVYRGKLGDGTMVAVKRLKDINGTSGDSQFRMELEMISLAVHKNLLRLIGYCATSGERLLVYPYMPNGSVASKLKSKPALDWNMRKRIAIGAARGLLELHEQCDPKIIHRDVKAANILLDECFEAVVGDFGLAKLLNHADSHVTTAVRGTVGHIAPEYLSTGQSSEKTDVFGFGILLLELITGLRALEFGKTVSQKGAMLEWVRKLHEEMKVEELLDRELGTNYDKIEVGEMLQVALLCTQYLPAHRPKMSEVVLMLEGDGLAERWAASHNHSHFYHANISFKTISSLSTTSVSRLDAHCNDPTYQMFGSSAFDDDDDHQPLDSFAMELSGPR	0.12
GST-AtSARK-CD, cytoplasmic domain of Arabidopsis thaliana senescence-associated receptor-like kinase AtSARK, wild type, Q8VYT3 S384D (protein) CWYRKKQRRLLILNLNDKQEEGLQGLGNLRSFTFRELHVYTDGFSSKNILGAGGFGNVYRGKLGDGTMVAVKRLKDINGTSGDSQFRMELEMISLAVHKNLLRLIGYCATSGERLLVYPYMPNGDVASKLKSKPALDWNMRKRIAIGAARGLLYLHEQCDPKIIHRDVKAANILLDECFEAVVGDFGLAKLLNHADSHVTTAVRGTVGHIAPEYLSTGQSSEKTDVFGFGILLLELITGLRALEFGKTVSQKGAMLEWVRKLHEEMKVEELLDRELGTNYDKIEVGEMLQVALLCTQYLPAHRPKMSEVVLMLEGDGLAERWAASHNHSHFYHANISFKTISSLSTTSVSRLDAHCNDPTYQMFGSSAFDDDDDHQPLDSFAMELSGPR	1.04
GST-AtSARK-CD, cytoplasmic domain of Arabidopsis thaliana senescence-associated receptor-like kinase AtSARK, wild type, Q8VYT3 Y473F (protein) CWYRKKQRRLLILNLNDKQEEGLQGLGNLRSFTFRELHVYTDGFSSKNILGAGGFGNVYRGKLGDGTMVAVKRLKDINGTSGDSQFRMELEMISLAVHKNLLRLIGYCATSGERLLVYPYMPNGSVASKLKSKPALDWNMRKRIAIGAARGLLYLHEQCDPKIIHRDVKAANILLDECFEAVVGDFGLAKLLNHADSHVTTAVRGTVGHIAPEFLSTGQSSEKTDVFGFGILLLELITGLRALEFGKTVSQKGAMLEWVRKLHEEMKVEELLDRELGTNYDKIEVGEMLQVALLCTQYLPAHRPKMSEVVLMLEGDGLAERWAASHNHSHFYHANISFKTISSLSTTSVSRLDAHCNDPTYQMFGSSAFDDDDDHQPLDSFAMELSGPR	0.96
GST-AtSARK-CD, cytoplasmic domain of Arabidopsis thaliana senescence-associated receptor-like kinase AtSARK, wild type, Q8VYT3 S304A (protein) CWYRKKQRRLLILNLNDKQEEGLQGLGNLRSFTFRELHVYTDGFASKNILGAGGFGNVYRGKLGDGTMVAVKRLKDINGTSGDSQFRMELEMISLAVHKNLLRLIGYCATSGERLLVYPYMPNGSVASKLKSKPALDWNMRKRIAIGAARGLLYLHEQCDPKIIHRDVKAANILLDECFEAVVGDFGLAKLLNHADSHVTTAVRGTVGHIAPEYLSTGQSSEKTDVFGFGILLLELITGLRALEFGKTVSQKGAMLEWVRKLHEEMKVEELLDRELGTNYDKIEVGEMLQVALLCTQYLPAHRPKMSEVVLMLEGDGLAERWAASHNHSHFYHANISFKTISSLSTTSVSRLDAHCNDPTYQMFGSSAFDDDDDHQPLDSFAMELSGPR	1.08
GST-AtSARK-CD, cytoplasmic domain of Arabidopsis thaliana senescence-associated receptor-like kinase AtSARK, wild type, Q8VYT3 T326D (protein) CWYRKKQRRLLILNLNDKQEEGLQGLGNLRSFTFRELHVYTDGFSSKNILGAGGFGNVYRGKLGDGDMVAVKRLKDINGTSGDSQFRMELEMISLAVHKNLLRLIGYCATSGERLLVYPYMPNGSVASKLKSKPALDWNMRKRIAIGAARGLLYLHEQCDPKIIHRDVKAANILLDECFEAVVGDFGLAKLLNHADSHVTTAVRGTVGHIAPEYLSTGQSSEKTDVFGFGILLLELITGLRALEFGKTVSQKGAMLEWVRKLHEEMKVEELLDRELGTNYDKIEVGEMLQVALLCTQYLPAHRPKMSEVVLMLEGDGLAERWAASHNHSHFYHANISFKTISSLSTTSVSRLDAHCNDPTYQMFGSSAFDDDDDHQPLDSFAMELSGPR	0.84
